Patent publication US20220073610A1 (CHANGCHUN GENESCIENCE PHARMACEUTICAL, published 2022)

Columns and labels:
human CD47 [1] = target: T1, human CD47 (human, UniProt Q08722 19-139, limits assumed); experiment: ELISA of transient expression product; the sheet names no antigen and shows one curve per antibody; format not stated for this figure, read as the PD-L1/CD47 bridging ELISA of Example 3
T1 construct: also called hCD47

human PD-L1 [2] = target: T2, human PD-L1 (human, UniProt Q9NZQ7 19-238, limits assumed); experiment: as above
T2 construct: also called hPD-L1
T2 sequence (Q9NZQ7 19-238 limits assumed): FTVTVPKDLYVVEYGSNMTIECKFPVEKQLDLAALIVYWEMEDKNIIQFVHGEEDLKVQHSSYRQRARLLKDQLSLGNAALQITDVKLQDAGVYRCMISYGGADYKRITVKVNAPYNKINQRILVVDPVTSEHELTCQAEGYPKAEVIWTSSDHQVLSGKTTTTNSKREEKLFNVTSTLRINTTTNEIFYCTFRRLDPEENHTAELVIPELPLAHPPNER

[3] = target: T3, Human CD47-His (constructed by GeneScience) (human, UniProt Q08722 19-139); experiment: SPR, Biacore T200, CD47-His coupled to chip, antibody as analyte
T3 construct: also called hCD47
T3 sequence (Q08722 other isoform, or with tags, fused parts or gaps limits assumed): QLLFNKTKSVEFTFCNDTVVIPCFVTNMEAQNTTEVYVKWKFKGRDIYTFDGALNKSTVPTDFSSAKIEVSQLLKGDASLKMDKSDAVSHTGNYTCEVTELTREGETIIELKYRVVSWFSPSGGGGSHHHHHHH
Method: (§1) The affinities of antibodies with B2 structure and with FV1 structure were detected by Biacore T200 instrument. The specific protocols were as follows. Human PD-L1-His and human CD47-His were coupled to CMS biosensor chip (GE), and then the antibodies of different concentrations were flowed through the chip at a flow rate of 30 μL/min. The binding between the candidate antibody and antigen was performed with a binding time of 120 s and a dissociation time of 300 s. The kinetic fitting was performed using BIAevalution software (GE), and the results of affinity constants were obtained as shown in Table 2 and Table 3.

Human PD-L1-His = target: T4, Human PD-L1-His (human, UniProt Q9NZQ7 19-238, limits assumed); experiment: SPR, Biacore T200, PD-L1-His coupled to chip, antibody as analyte
T4 construct: not shown: His tag
T4 sequence (Q9NZQ7 19-238 limits assumed): as the sequence (Q9NZQ7 19-238 limits assumed) above
Method: as §1

[4] = target: T3, Human CD47-His (constructed by …); experiment: bridging ELISA of Example 3: PD-L1-mFc coated, purified antibody titrated, CD47-His as second antigen; paragraph 132 prints the value without a unit, the unit is from the sheet's axis Antibody(ug/ml)
Method: (§2) 1. Coating the first antigen: Human PD-L1-mFc (constructed by GeneScience, SEQ ID NO: 22) was diluted with PBS to 1 μg/mL, and then added to a 96-well microtiter plate at 50 μL per well and incubated overnight at 4° C.
(§3) 4. Adding the second antigen: Human CD47-His (constructed by GeneScience, SEQ ID NO: 23) was diluted with PBS to 10 μg/mL, and then added to the 96-well microtiter plate at 50 μL per well and incubated at 25° C. for 1 hour.
(§4) 8. Detection: After terminating the reaction, the microtiter plate was immediately put into the microplate reader. The OD value at 450 nm was measured, and the original data was saved for sorting.

[5] = target: Human PD-L1-mFc (constructed by GeneScience) (human); experiment: as above
Human PD-L1-mFc (constructed by GeneScience) (human), sequence (chain, as listed by the source limits assumed): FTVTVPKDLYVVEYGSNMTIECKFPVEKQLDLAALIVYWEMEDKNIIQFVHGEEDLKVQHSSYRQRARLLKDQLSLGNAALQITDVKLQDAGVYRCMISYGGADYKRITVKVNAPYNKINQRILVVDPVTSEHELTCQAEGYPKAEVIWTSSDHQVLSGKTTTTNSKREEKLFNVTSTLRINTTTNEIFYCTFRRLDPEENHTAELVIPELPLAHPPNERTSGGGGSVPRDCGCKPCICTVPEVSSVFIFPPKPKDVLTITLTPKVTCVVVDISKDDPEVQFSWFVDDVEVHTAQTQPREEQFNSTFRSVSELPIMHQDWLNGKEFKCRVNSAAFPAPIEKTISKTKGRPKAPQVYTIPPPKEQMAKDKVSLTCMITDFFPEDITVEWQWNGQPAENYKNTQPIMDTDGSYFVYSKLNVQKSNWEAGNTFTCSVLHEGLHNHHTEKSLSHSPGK
Method: as §2, §3, §4

human CD47 [6] = target: T1, human CD47; experiment: ELISA of transient expression product; no antigen named on the sheet; PD-L1 Ab and CD47 Ab are both flat, so read as the PD-L1/CD47 bridging ELISA of Example 3; no unit beside the EC50, unit taken from the axis Antibody(ug/ml)
human PD-L1 [7] = target: T2, human PD-L1; experiment: as above

T1 sequence (Q08722 19-139 limits assumed): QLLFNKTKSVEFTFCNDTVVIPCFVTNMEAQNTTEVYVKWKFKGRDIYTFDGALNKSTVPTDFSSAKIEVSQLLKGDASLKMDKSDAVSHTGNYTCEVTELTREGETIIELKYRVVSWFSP

B1: B4 (bispecific antibody)
chain 1: QVQLVQSGAEVKKPGASVKVSCKASGYTFTNYVLHWVRQAPGQRLEWMGYFNPYNDDSKYNEKFKGRVTITRDTSASTAYMELSSLRSEDTAVYYCARGGYYSMDYWGQGTLVTVSSGGGGSGGGGSGGGGSASDIVMTQTPLSLPVTPGQPASISCRASQSLAHSNGYTYLQWYLQKPGQSPQLLIYKVSKRFSGVPDRFSGSGSGTDFTLKISRVEAEDVGVYYCSQSTHVPYTFGQGTKVEIKASTKGPSVFPLAPSSKSTSGGTAALGCLVKDYFPEPVTVSWNSGALTSGVHTFPAVLQSSGLYSLSSVVTVPSSSLGTQTYICNVNHKPSNTKVDKKVEPKSCDK
chain 2: RTVAAPSVFIFPPSDEQLKSGTASVVCLLNNFYPREAKVQWKVDNALQSGNSQESVTEQDSKDSTYSLSSTLTLSKADYEKHKVYACEVTHQGLSSPVTKSFNRGECEVQLVESGGGLVQPGGSLRLSCAASYFPFSDSWIHWVRQAPGKGLEWVAWISPYGGSSYYADSVQDRFTISADTSKNTAYLQMNSLRAEDTAVYYCAKRHWPGGFDHWGQGTLVTVSSGGGGSGGGGSGGGGSASDIQMTQSPSSLSASVGDRVTITCSASQDVTTAVAWYQQKPGKAPKLLIYSASFPYRGVPSRFSGSGSGTDFTLTISSLQPEDFATYYCQQYMYHPSTFGQGTKVEIK
notes: also called B4 structure; H4+L4
Question: B1 was tested. Which “EC50 (read off the curve)” value (human CD47 [1]) did it give?
Answer: ~0.09 µg/mL

Question: What about the “EC50 (read off the curve)” value (human PD-L1 [2]) of the same binder?
Answer: ~0.09 µg/mL

B2: bivalent bispecific antibody with FV1 structure (H5+L5+H6+L6) (bispecific antibody, human IgG1, kappa)
heavy 1: not shown
light 1: DIQMTQSPSSLSASVGDRVTITCSASQDVTTAVAWYQQKPGKAPKLLIYSASFPYRGVPSRFSGSGSGTDFTLTISSLQPEDFATYYCQQYMYHPSTFGQGTKVEIKRTVAAPSVFIFPPSDEQLKSGTASVVCLLNNFYPREAKVQWKVDNALQSGNSQESVTEQDSKDSTYSLSSTLTLSKADYEKHKVYACEVTHQGLSSPVTKSFNRGEC
heavy 2: not shown
light 2: DVVMTQTPLSLPVSLGDQASISCRSSQSLVHSKGNTYLHWYLQKPGQSPKLLIYRVSNRFSGVPDRFSGSGSGTDFTLKISRVEAEDLGVYFCSQSTHVPFTFGSGTKLEIKLGGC
notes: It is IgG1-based with knob-into-hole CH3 domains; also called FV1 bispecific antibody
Question: Which results are given for B2?
Answer: Kd [3]: 15 nM; Kd (Human PD-L1-His): 0.271 nM; koff (Human PD-L1-His): 0.000119 s⁻¹; kon (Human PD-L1-His): 440000 M⁻¹ s⁻¹; EC50 [4]: 1.66 µg/mL; EC50 [5]: 1.66 µg/mL; EC50 (human CD47 [6]): 0.0887 µg/mL; EC50 (human PD-L1 [7]): 0.0887 µg/mL

B3: FV2 (bispecific antibody, human IgG1, kappa)
chain 1: not shown
chain 2: DIQMTQSPSSLSASVGDRVTITCSASQDVTTAVAWYQQKPGKAPKLLIYSASFPYRGVPSRFSGSGSGTDFTLTISSLQPEDFATYYCQQYMYHPSTFGQGTKVEIKRTVAAPSVFIFPPSDEQLKSGTASVVCLLNNFYPREAKVQWKVDNALQSGNSQESVTEQDSKDSTYSLSSTLTLSKADYEKHKVYACEVTHQGLSSPVTKSFNRGEC
chain 3: not shown
chain 4: DVVMTQTPLSLPVSLGDQASISCRSSQSLVHSKGNTYLHWYLQKPGQSPKLLIYRVSNRFSGVPDRFSGSGSGTDFTLKISRVEAEDLGVYFCSQSTHVPFTFGSGTKLEIKSGGGGSASLGGC
notes: also called FV2 structure; H5+L5+H7+L7
Question: Which EC50 (human CD47 [6]) does the source give for B3 here?
Answer: 0.186 µg/mL

Question: And the EC50 (human PD-L1 [7])?
Answer: 0.186 µg/mL

B4: FV4 (bispecific antibody, human IgG1, kappa)
chain 1: not shown
chain 2: DIQMTQSPSSLSASVGDRVTITCSASQDVTTAVAWYQQKPGKAPKLLIYSASFPYRGVPSRFSGSGSGTDFTLTISSLQPEDFATYYCQQYMYHPSTFGQGTKVEIKRTVAAPSVFIFPPSDEQLKSGTASVVCLLNNFYPREAKVQWKVDNALQSGNSQESVTEQDSKDSTYSLSSTLTLSKADYEKHKVYACEVTHQGLSSPVTKSFNRGEC
chain 3: not shown
chain 4: DVVMTQTPLSLPVSLGDQASISCRSSQSLVHSKGNTYLHWYLQKPGQSPKLLIYRVSNRFSGVPDRFSGSGSGTDFTLKISRVEAEDLGVYFCSQSTHVPFTFGSGTKLEIKSGGGGSASLGGC
notes: also called FV4 structure; H5+L5+H9+L7
Question: With B4 as the binder, how does the EC50 (human CD47 [6]) read?
Answer: 0.146 µg/mL

Question: And the EC50 (human PD-L1 [7])?
Answer: 0.146 µg/mL

B5: FV3 (bispecific antibody, human IgG1, kappa)
chain 1: not shown
chain 2: DIQMTQSPSSLSASVGDRVTITCSASQDVTTAVAWYQQKPGKAPKLLIYSASFPYRGVPSRFSGSGSGTDFTLTISSLQPEDFATYYCQQYMYHPSTFGQGTKVEIKRTVAAPSVFIFPPSDEQLKSGTASVVCLLNNFYPREAKVQWKVDNALQSGNSQESVTEQDSKDSTYSLSSTLTLSKADYEKHKVYACEVTHQGLSSPVTKSFNRGEC
chain 3: not shown
chain 4: DVVMTQTPLSLPVSLGDQASISCRSSQSLVHSKGNTYLHWYLQKPGQSPKLLIYRVSNRFSGVPDRFSGSGSGTDFTLKISRVEAEDLGVYFCSQSTHVPFTFGSGTKLEIKGGGGSGGGGSGGGGSASLGGC
notes: also called FV3 structure; H5+L5+H8+L8
Question: With B5 as the binder, how does the EC50 (human CD47 [6]) read?
Answer: 0.179 µg/mL

Question: And the EC50 (human PD-L1 [7])?
Answer: 0.179 µg/mL

B6: bivalent bispecific antibody with B2 structure (H2+L2) (bispecific antibody)
heavy: ASTKGPSVFPLAPSSKSTSGGTAALGCLVKDYFPEPVTVSWNSGALTSGVHTFPAVLQSSGLYSLSSVVTVPSSSLGTQTYICNVNHKPSNTKVDKKVEPKSCDKEVQLVESGGGLVQPGGSLRLSCAASYFPFSDSWIHWVRQAPGKGLEWVAWISPYGGSSYYADSVQDRFTISADTSKNTAYLQMNSLRAEDTAVYYCAKRHWPGGFDHWGQGTLVTVSSGGGGSGGGGSGGGGSASDIQMTQSPSSLSASVGDRVTITCSASQDVTTAVAWYQQKPGKAPKLLIYSASFPYRGVPSRFSGSGSGTDFTLTISSLQPEDFATYYCQQYMYHPSTFGQGTKVEIK
light: QVQLVQSGAEVKKPGASVKVSCKASGYTFTNYVLHWVRQAPGQRLEWMGYFNPYNDDSKYNEKFKGRVTITRDTSASTAYMELSSLRSEDTAVYYCARGGYYSMDYWGQGTLVTVSSGGGGSGGGGSGGGGSASDIVMTQTPLSLPVTPGQPASISCRASQSLAHSNGYTYLQWYLQKPGQSPQLLIYKVSKRFSGVPDRFSGSGSGTDFTLKISRVEAEDVGVYYCSQSTHVPYTFGQGTKVEIKRTVAAPSVFIFPPSDEQLKSGTASVVCLLNNFYPREAKVQWKVDNALQSGNSQESVTEQDSKDSTYSLSSTLTLSKADYEKHKVYACEVTHQGLSSPVTKSFNRGEC
notes: The two chains form a heterodimer through a CL-hinge disulfide bond, and there is no Fc; also called B2 bispecific antibody; preferred antibody B2
Question: With B6 as the binder, how does the Kd [3] read?
Answer: 25.8 nM

Question: And the Kd (Human PD-L1-His)?
Answer: 0.109 nM

Question: And the koff (Human PD-L1-His)?
Answer: 4.28e-05 s⁻¹

Question: What about the kon (Human PD-L1-His) of the same binder?
Answer: 395000 M⁻¹ s⁻¹

Question: What about the EC50 [4] of the same binder?
Answer: 0.564 µg/mL

Question: What about the EC50 [5] of the same binder?
Answer: 0.564 µg/mL

B7: B1 (bispecific antibody)
chain 1: ASTKGPSVFPLAPSSKSTSGGTAALGCLVKDYFPEPVTVSWNSGALTSGVHTFPAVLQSSGLYSLSSVVTVPSSSLGTQTYICNVNHKPSNTKVDKKVEPKSCDKQVQLVQSGAEVKKPGASVKVSCKASGYTFTNYVLHWVRQAPGQRLEWMGYFNPYNDDSKYNEKFKGRVTITRDTSASTAYMELSSLRSEDTAVYYCARGGYYSMDYWGQGTLVTVSSGGGGSGGGGSGGGGSASDIVMTQTPLSLPVTPGQPASISCRASQSLAHSNGYTYLQWYLQKPGQSPQLLIYKVSKRFSGVPDRFSGSGSGTDFTLKISRVEAEDVGVYYCSQSTHVPYTFGQGTKVEIK
chain 2: EVQLVESGGGLVQPGGSLRLSCAASYFPFSDSWIHWVRQAPGKGLEWVAWISPYGGSSYYADSVQDRFTISADTSKNTAYLQMNSLRAEDTAVYYCAKRHWPGGFDHWGQGTLVTVSSGGGGSGGGGSGGGGSASDIQMTQSPSSLSASVGDRVTITCSASQDVTTAVAWYQQKPGKAPKLLIYSASFPYRGVPSRFSGSGSGTDFTLTISSLQPEDFATYYCQQYMYHPSTFGQGTKVEIKRTVAAPSVFIFPPSDEQLKSGTASVVCLLNNFYPREAKVQWKVDNALQSGNSQESVTEQDSKDSTYSLSSTLTLSKADYEKHKVYACEVTHQGLSSPVTKSFNRGEC
notes: also called B1 structure; H1+L1
Question: Which “EC50 (read off the curve)” value (human CD47 [1]) does the source give for B7 here?
Answer: ~0.2 µg/mL

Question: And the “EC50 (read off the curve)” value (human PD-L1 [2])?
Answer: ~0.2 µg/mL
